Experimental data as given in article PMC3932411.

Legend:
[1] = cell surface biotinylation, Western blot; conditions: glycan lost; control: wild type
I-V relationship = conditions: glycan lost; control: wild type

B1: TRPM5: N932Q (protein)
parent chain: MQDVQGPRPGSPGDAEDRRELGLHRGEVNFGGSGKKRGKFVRVPSGVAPSVLFDLLLAEWHLPAPNLVVSLVGEEQPFAMKSWLRDVLRKGLVKAAQSTGAWILTSALRVGLARHVGQAVRDHSLASTSTKVRVVAVGMASLGRVLHRRILEEAQEDFPVHYPEDDGGSQGPLCSLDSNLSHFILVEPGPPGKGDGLTELRLRLEKHISEQRAGYGGTGSIEIPVLCLLVNGDPNTLERISRAVEQAAPWLILVGSGGIADVLAALVNQPHLLVPKVAEKQFKEKFPSKHFSWEDIVRWTKLLQNITSHQHLLTVYDFEQEGSEELDTVILKALVKACKSHSQEPQDYLDELKLAVAWDRVDIAKSEIFNGDVEWKSCDLEEVMVDALVSNKPEFVRLFVDNGADVADFLTYGRLQELYRSVSRKSLLFDLLQRKQEEARLTLAGLGTQQAREPPAGPPAFSLHEVSRVLKDFLQDACRGFYQDGRPGDRRRAEKGPAKRPTGQKWLLDLNQKSENPWRDLFLWAVLQNRHEMATYFWAMGQEGVAAALAACKILKEMSHLETEAEAARATREAKYERLALDLFSECYSNSEARAFALLVRRNRCWSKTTCLHLATEADAKAFFAHDGVQAFLTRIWWGDMAAGTPILRLLGAFLCPALVYTNLITFSEEAPLRTGLEDLQDLDSLDTEKSPLYGLQSRVEELVEAPRAQGDRGPRAVFLLTRWRKFWGAPVTVFLGNVVMYFAFLFLFTYVLLVDFRPPPQGPSGPEVTLYFWVFTLVLEEIRQGFFTDEDTHLVKKFTLYVGDNWNKCDMVAIFLFIVGVTCRMLPSAFEAGRTVLAMDFMVFTLRLIHIFAIHKQLGPKIIVVERMMKDVFFFLFFLSVWLVAYGVTTQALLHPHDGRLEWIFRRVLYRPYLQIFGQIPLDEIDEARVNCSTHPLLLEDSPSCPSLYANWLVILLLVTFLLVTNVLLMNLLIAMFSYTFQVVQGNADMFWKFQRYNLIVEYHERPALAPPFILLSHLSLTLRRVFKKEAEHKREHLERDLPDPLDQKVVTWETVQKENFLSKMEKRRRDSEGEVLRKTAHRVDFIAKYLGGLREQEKRIKCLESQINYCSVLVSSVADVLAQGGGPRSSQHCGEGSQLVAADHRGGLDGWEQPGAGQPPSDT
[1]
  localisation_or_trafficking: no change
I-V relationship
  other: channel biophysical properties: no change
